The text below walks through data of patent publication US20200157219A1 (SYSTIMMUNE, published 2020).

For assay [1], the target named is T1, human PD-1 extracellular domain (human, UniProt Q15116 25-170).
T1 construct: extracellular domain; Soluble analyte in the bio-layer interferometry assay; also called recombinant human PD-1 extracellular domain protein
Kind of assay: bio-layer interferometry (Octet Red 96), antibody on anti-human Fc biosensor, PD-1 ECD in solution, 1:1 global fit, 30 C. How it is done:
The binding kinetics of selected anti-PD-1 antibodies AB1-AB5 and AB1HU-AB5HU was determined by bio-layer interferometry analysis on a ForteBio Octet Red 96 instrument. First, purified antibodies were produced by protein A chromatography using HEK-293 transiently-transfected antibody supernatants. This assay was performed by immobilizing the purified antibodies to anti-human Fc biosensors. PD-1 binding to and dissociation from the biosensors was then observed at various concentrations of PD-1. Specifically, eight anti-human Fc biosensors were placed into wells containing the same purified antibody for 5 minutes. Biosensors were equilibrated in kinetics buffer (Pall ForteBio) for 1 minute to establish a baseline. Association of PD-1 was observed by placing the biosensors into wells containing various concentrations of human PD-1 extracellular domain for 5 minutes. Dissociation was measured after transfer of the biosensors into kinetics buffer and monitoring the interferometry signals for 15 minutes. All steps of the assay were performed at 30° C. with shaking at 1000 RPM. The on and off rates (kon and koff) and the equilibrium binding constant KD were determined using the software provided by the manufacturer and were fit using a 1:1 binding global fit model comprising several of the concentrations tested.

Assay [2] deals with T2, human PD-1 expressed on Jurkat cells (human, UniProt Q15116 25-288).
T2 construct: whole, on cells; also called huPD-1; Jurkat/huPD-1 clonal cell line
Kind of assay: blocking of biotinylated human PD-L1 binding to Jurkat/huPD-1 cells, flow cytometry, streptavidin-APC MFI. How it is done:
The Jurkat/huPD-1 clonal cell line was labeled with FVS520 viability dye (BD Biosciences, 1:2000 dilution) for 15 minutes at room temperature. The labeled cells were then diluted in FACS buffer (2% FBS in PBS), added to V-bottom 96-well plates (50,000 cells per well), and stained with 0-100 nM anti-huPD1 or isotype control antibody on ice for 30 minutes. Cells were washed to remove excess antibody, then labeled with 15 ug/ml His-tag purified, monobiotinylated […] on ice for 30 minutes. Cells were washed again with FACS buffer, then labeled with 0.25 ug/ml APC-conjugated streptavidin on ice for 20 minutes. Cells were washed again with before acquisition on a BD FACSCalibur flow cytometer equipped with the Cytek AMS plate loader system. AB1HU-AB5HU results in this assay are shown in FIG. 3. and show the median fluorescence intensity (MFI) on the APC channel after gating on live cells. Error bars represent the standard deviation of duplicate samples.
On the technique in general: In flow cytometry, cells or beads pass a laser one at a time.

Assay [3] has as its target T2, human PD-1 expressed on Jurkat cells. Kind of assay: flow cytometry on Jurkat/huPD-1 cells, anti-human Fc AF647 secondary, MFI. The procedure:
The human PD-1 gene was subcloned into the pcDNA3.1 mammalian expression vector and transfected into the Jurkat human T cell line. A clonal cell population expressing high levels of huPD-1 was generated by G418 drug selection and single-cell sorting. This Jurkat/huPD-1 clonal cell line was labeled with FVS520 viability dye (BD Biosciences, 1:2000 dilution) for 15 minutes at room temperature. The labeled cells were then diluted in FACS buffer (2% FBS in PBS), added to V-bottom 96-well plates (50,000 cells per well), and stained with 0-25 nM anti-huPD1 or isotype control antibody on ice for 30 minutes. Cells were washed to remove excess primary antibody, then labeled with Alexa luor 647-conjugated goat anti-human Fc secondary antibody (Jackson Immunoresearch, 1:1600 dilution) on ice for 20 minutes. The labeled cells were then washed with FACS buffer before acquisition on a BD FACSCalibur flow cytometer equipped with the Cytek AMS plate loader system. Data points show the median fluorescence intensity (MFI) on the AF647 channel after gating on live cells. Nonlinear regression methods were used to fit curves to each data set, and error bars represent the standard deviation of duplicate samples.

The target is the same in assay [4]. Kind of assay: blocking of biotinylated human PD-L2 binding to Jurkat/huPD-1 cells, flow cytometry, streptavidin-APC MFI. The procedure: The Jurkat/huPD-1 clonal cell line was labeled with FVS520 viability dye (BD Biosciences, 1:2000 dilution) for 15 minutes at room temperature. The labeled cells were then diluted in FACS buffer (2% FBS in PBS), added to V-bottom 96-well plates (50,000 cells per well), and stained with 0-100 nM anti-huPD1 or isotype control antibody on ice for 30 minutes. Cells were washed to remove excess antibody, then labeled with 15 ug/ml His-tag purified, monobiotinylated huPD-L2 on ice for 30 minutes. Cells were washed with FACS buffer, then labeled with 0.25 ug/ml APC-conjugated streptavidin on ice for 20 minutes. Cells were washed again with FACS buffer before acquisition on a FACSCalibur flow cytometer equipped with the Cytek AMS plate loader system. […] Error bars represent the standard deviation of duplicate samples.

The target is the same in assay [5]. Kind of assay: flow cytometry on Jurkat/huPD-1 cells, biotinylated PD-L2 detected with streptavidin-APC, MFI.

T2 sequence (Q15116 25-288): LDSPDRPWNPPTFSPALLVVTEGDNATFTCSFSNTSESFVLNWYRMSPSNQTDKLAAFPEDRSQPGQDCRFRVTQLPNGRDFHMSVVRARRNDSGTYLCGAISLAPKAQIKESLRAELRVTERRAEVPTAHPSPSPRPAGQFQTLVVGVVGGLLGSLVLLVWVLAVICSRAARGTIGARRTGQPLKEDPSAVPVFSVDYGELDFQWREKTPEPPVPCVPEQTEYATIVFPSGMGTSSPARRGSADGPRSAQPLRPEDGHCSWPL
T1 sequence (Q15116 25-170): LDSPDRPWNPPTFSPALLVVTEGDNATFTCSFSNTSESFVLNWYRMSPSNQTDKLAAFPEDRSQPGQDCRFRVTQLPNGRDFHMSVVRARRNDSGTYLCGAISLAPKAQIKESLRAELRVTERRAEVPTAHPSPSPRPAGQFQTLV

B1: AB4 (antibody, human IgG1, kappa, V domains shown)
VH: QSLEESGGRLVTPGTPLTLTCTVSGFSLSSYAMSWVRQAPGKGLEYIGYIGDTTGIAYASWANGRFTISKTSTTVDLKITSPTTGDTATYFCARGWSYLDIWGQGTLVTVSS
VL: ALVMTQTPSSVSAAVGGTVTINCQASQNIYSNLAWYQQKPGQPPSLLIYQASTLASGVSSRFSGSGYGTEFTLTISDLECADAATYYCQGGYYSAALNTFGGGTEVVVKR
notes: Rabbit variable domains on human IgG1 / human kappa constant domains; also called AB4 chimeric
Turning to B1, in assay [1], the Kd is 9.2 nM, the koff was found to be 0.001 s⁻¹ and the kon came out at 110000 M⁻¹ s⁻¹.

B2: AB5 (antibody, human IgG1, kappa, V domains shown)
VH: QEQLEESGGDLVKPEGSLTLTCTASGFSFSSSHWICWVRQAPGKGLEWIACIYTGSIDVFYCASWAKGRFTISKPSSTTVTLQVPSLTAADTATYFCARAANTDTTYFNLWGPGTLVTVSS
VL: AYDMTQTPSSVSAAVGGTVTINCQASQSINNQLSWYQQKPGQPPKLLIYGASTLASGVPSRFTGSGSGTEFTLTISGVQCDDAATYYCHVHYCSGGSCFWAFGGGTEVVVKR
notes: Rabbit variable domains on human IgG1 / human kappa constant domains; also called AB5 chimeric
With B2, in assay [1], the Kd is 3.3 nM, the koff was found to be 0.00026 s⁻¹ and the on-rate constant (kon) amounted to 78000 M⁻¹ s⁻¹.

B3: AB5HU (antibody, human IgG1, kappa, V domains shown)
VH: EVQLLESGGGLVQPGGSLRLSCAASGFTFSSSHWICWVRQAPGKGLEWIACIYTGSIDVFYYASWAKGRFTISRDNSKNTLYLQMNSLRAEDTAVYYCARAANTDTTYFNLWGQGTLVTVSS
VL: AYDMTQSPSSLSASVGDRVTINCQASQSINNQLSWYQQKPGKVPKLLIYGASTLASGVPSRFTGSGSGTDFTLTISSLQPEDVATYYCHVHYCSGGSCFWAFGGGTKVEIKR
notes: Humanized, human gamma-1 / kappa constant domains as in the full-length entries; also called humanized form of antibody AB5; ABSHU [sic]
Consider B3, for which, in assay [1], the Kd was 6.6 nM, the koff is 0.0004 s⁻¹ and the kon stood at 61000 M⁻¹ s⁻¹.

B4: AB2 (antibody, human IgG1, kappa, V domains shown)
VH: QEQLVESGGGLVQPEGSLTLTCTASGFSFSSYWMCWVRQAPGKGLEWIGCITTGSGSTYYASWAKRRFTISKTSSTTVTLQMTSLTAADTATYFCTRAFDLWGPGTLVTVSS
VL: DVVMTQTPASVSAVVGGTVTIKCQASQSIYSYLNWYQQKPGQPPKLLIYGASNLASGVSSRFKGSGSGTEFTLTISDLECADAATYYCQCSWLSGAVGNAFGGGTEVVVKR
notes: Rabbit variable domains on human IgG1 / human kappa constant domains; also called AB2 chimeric
In assay [1], B4 had a Kd of 86 nM, a koff of 0.0057 s⁻¹ and a kon of 67000 M⁻¹ s⁻¹.

B5: AB1HU (antibody, human IgG1, kappa, V domains shown)
VH: EVQLVESGGGLVQPGGSLRLSCAASGFDFSSGYWICWVRQAPGKGLELIACIYAGTSGSTSYASWARGRFTISETSKNTVTLQMNSLRAEDSAVYYCARNLYTYNSLWGQGTLVTVSS
VL: DIQMTQSPSTLSASVGDRVTITCQSSQSVYDNNWLAWYQQKPGKAPKLLIYTVSTLASGVPSRFSGSGSGTEFTLTISSLQPDDFATYYCQGTYYSSGWNFAFGGGTKVEIKR
notes: Humanized, human gamma-1 / kappa constant domains as in the full-length entries; also called humanized form of antibody AB1
B5: the “IC50 (read off the curve)” value in assay [2] was around 4000 pM. In assay [1], this molecule returned an equilibrium dissociation constant (Kd) of 16 nM, a dissociation rate constant (koff) of 0.0002 s⁻¹ and a kon of 12000 M⁻¹ s⁻¹.

B6: AB4HU (antibody, human IgG1, kappa, V domains shown)
VH: EVQLVESGGGLVQPGGSLRLSCTASGFSLSSYAMSWVRQAPGKGLEYIGYIGDTTGIAYASWANGRFTISKDNTKNTVDLQMNSLRAEDTAVYYCARGWSYLDIWGQGTLVTVSS
VL: ALVMTQSPSSLSASVGDRVTITCQASQNIYSNLAWYQQKPGKVPKLLIYQASTLASGVPSRFSGSGYGTDFTLTISSLQPEDVATYYCQGGYYSAALNTFGGGTKVEIKR
notes: Humanized, human gamma-1 / kappa constant domains as in the full-length entries; also called humanized form of antibody AB4
In assay [1], B6 showed a Kd of 4.3 nM, a koff of 0.00038 s⁻¹ and a kon of 87000 M⁻¹ s⁻¹.

B7: AB1 (antibody, human IgG1, kappa, V domains shown)
VH: QSLEESGGDLVKPEGSLTLTCKASGFDFSSGYWICWVRQAPGKGLELIACIYAGTSGSTSYASWARGRFTISETSSTTVTLQMTSLTAADSATYFCARNLYTYNSLWGQGTLVTVSS
VL: QVLTQTASSVSAAVGGTVTISCQSSQSVYDNNWLAWYQQKPGQPPMLLIYTVSTLASGVSSRFKGSGSGTQFTLTISGVQCDDAATYYCQGTYYSSGWNFAFGGGTEVVVKR
notes: Rabbit variable domains on human IgG1 / human kappa constant domains; purified by protein A from HEK-293 supernatant; also called AB1 chimeric; rabbit/human chimeric anti-PD-1 antibody AB1
Take B7: in assay [1], the Kd was determined as 4.8 nM, the dissociation rate constant (koff) came out at 0.00016 s⁻¹ and the kon turned out to be 36000 M⁻¹ s⁻¹.

B8: AB3HU (antibody, human IgG1, kappa, V domains shown)
VH: QEQVKETGGGLVQPGGSLRLSCAASGFTISSYGVSWVRQAPGKGLEWVALIFPGIGFKDYASWVNGRFTLSSDNAQNTVELQMNSLRAEDTAVYYCARDLDLWGQGTLVTVSS
VL: DIQMTQSPSSLSASVGDRVTITCQSSPSVYSNYLSWYQQKPGKVPKLLIYYASTLASGVPSRFSGSGSGTDFTLTISSLQPEDVATYYCAGGYSSSTRAFGGGTKVEIKR
notes: Humanized, human gamma-1 / kappa constant domains as in the full-length entries; also called humanized form of antibody AB3
As for B8, the “EC50 (read off the curve)” value in assay [3] was around 1000 pM. Besides, in assay [2], the “IC50 (read off the curve)” value was around 1000 pM. Moreover, in assay [4], the “IC50 (read off the curve)” value is around 1000 pM. In assay [1], this molecule displayed a Kd of 1.1 nM, a koff of 0.00014 s⁻¹ and a kon of 130000 M⁻¹ s⁻¹.

B9: AB3 (antibody, human IgG1, kappa, V domains shown)
VH: QEQVKETGGGLVQPGGSLTLSCKASGFTISSYGVSWVRQAPGKGLEWIALIFPGIGFKDYASWVNGRFTLSSDNAQNTVELQMNSLTAADTAAYFCARDLDLWGQGTLVTVSS
VL: QVLTQTPSPVSAAVGGTVSISCQSSPSVYSNYLSWFQQKPGQPPKLLIYYASTLASGVPSRFKGSGSGTQFTLTISDVQCDDAATYYCAGGYSSSTRAFGGGTEVVVKR
notes: Rabbit variable domains on human IgG1 / human kappa constant domains; also called AB3 chimeric
Consider B9, for which, in assay [1], binding was characterised by a dissociation constant (Kd) of 0.9 nM, the koff was 0.00012 s⁻¹ and the kon amounted to 130000 M⁻¹ s⁻¹.

B10: AB2HU (antibody, human IgG1, kappa, V domains shown)
VH: QEQLLESGGGLVQPGGSLRLSCTASGFSFSSYWMCWVRQAPGKGLEWIGCITTGSGSTYYASWAKRRFTISKDNSKNTVTLQMNSLRAEDTAVYYCTRAFDLWGQGTLVTVSS
VL: DIQMTQSPSSLSASVGDRVTITCQASQSIYSYLNWYQQKPGKAPKLLIYGASNLASGVPSRFSGSGSGTDFTLTISSLQPEDFATYYCQSSWLSGAVGNAFGGGTKVEIKR
notes: Humanized, human gamma-1 / kappa constant domains as in the full-length entries; also called humanized form of antibody AB2
Take B10: the “EC50 (read off the curve)” value in assay [3] is around 600 pM. The “IC50 (read off the curve)” value in assay [2] was around 2000 pM. For the same molecule, the “IC50 (read off the curve)” value in assay [4] is around 200 pM. Also, in assay [1], the Kd is 17 nM, the koff amounted to 0.0015 s⁻¹ and the kon worked out at 89000 M⁻¹ s⁻¹.

B11: recombinant human PD-L2 (ligand, UniProt Q9BQ51 20-220, looked up)
ligand: LFTVTVPKELYIIEHGSNVTLECNFDTGSHVNLGAITASLQKVENDTSPHRERATLLEEQLPLGKASFHIPQVQVRDEGQYQCIIIYGVAWDYKYLTLKVKASYRKINTHILKVPETDEVELTCQATGYPLAEVSWPNVSVPANTSHSRTPEGLYQVTSVLRLKPPPGRNFSCVFWNTHVRELTLASIDLQSQMEPRTHPT
modifications: monobiotinylated, His-tag purified
notes: recombinant soluble protein; also called huPD-L2
For the molecule B11, in assay [5], the binding result was “binds”.

The term Kd denotes the free concentration of one partner at which half of the binding sites on the other are occupied at equilibrium, for simple one-to-one binding. Low values mean tighter binding, high ones weaker binding. The term koff denotes the first-order rate constant of dissociation. The term kon denotes a measure of how fast the partners come together. A lower kon goes with slow association. One may read the EC50 (read off the curve) as the concentration that produces a half-maximal response. Low readings indicate greater potency, high ones weaker potency.
